These results are taken from US9283300B2, “Use of midkine protein and the protein-containing medical device” (GENERAL REGENERATIVES, LTD, priority 2009, dated 2016).

The test system of test [1] is ACLT-induced rat knee cartilage damage. The experiment in a line: Osteoarthritis induced by anterior cruciate ligament transection (ACLT) of rat knee, intra-articular rhMK. The class given is in vivo, SD rats. As to the method:
Method. 7-week-old male SD rats (250-330 g weight) were anesthetized with 3% pentobarbital sodium (30 mg/kg) by intraperitoneal injection. After anesthesia, the skin was prepared on both sides of the knees. With conventional surgical sterilization and under sterile conditions, the skin and subcutaneous tissue of the knees was cut open from the middle of front knee. The joint capsule was cut along the inner side of the white patellar tendon resulting in patellar dislocation. The anterior cruciate ligament was identified and cut with ophthalmic scissors. The knee was straightened, the patella was relocated, and the wound was sutured layer by layer. Amikacin (100,000 U/ml, injection concentration of 10 mg/kg, a dose of 1 μl/10 g body weight) was injected every day for 4 days to prevent the wound site infection. 14 weeks after the surgery, saline or rhMK was injected into the knee-articular cavity. The rats in sham group without ACLT surgery were not treated; The rats in the ACLT/saline group were injected with 100 μl saline; The rats in ACLT/rhMK-L group were injected with 100 μl rhMK (58.3 μg/kg); In ACLT/rhMK-H group, 100 μl rhMK (525 μg/kg) was given. The injections were given three times one week and continued for two weeks. The rats were maintained in cages with free movement. The rats were sacrificed 2 or 6 weeks after the initiation of the treatments. […]

In test [2] the test system is rat auricular chondrocytes. Description: Phenotype of chondrocytes in monolayer culture (semi-quantitative PCR of Col2a1, collagen II immunohistochemical staining). In kind it is cell-based. As to the method:
(§1) 3. Culture of primary chondrocytes in monolayer. Three types of primary chondrocytes were suspended in DMEM medium containing 10% FBS, adjusted to 5×10^4 cells/ml, added to 6-well plate with 2 ml medium/well, and incubated in 37° C. at 5% CO2. Experiment was divided into two groups: control group and experimental group (with 3 μg/ml rhMK). Cell medium was changed every two days. When the cells grew to the confluence of 85% to 90%, the cells were collected by trypsin digestion, washed in PBS by centrifugation. The cells were resuspended in DMEM containing 10% FBS. Cell survival was monitored by trypan blue staining. Part of the cells were used for cell passage; some were for RNA extraction; some were cytospined onto a glass slide for later immunohistochemical staining and the slides were stored at −80° C. Primary cells or passage 0 (P0) were cultured for 7 days. The newly passaged cells were further cultured in a 6-well plate for 3 days which was then collected by trypsin-digestion and marked as passage P1. The cell amplification at each passage=total number of cells at output/total number of cells at initial input. 6. Immunohistochemical staining. […] RNA extraction and semi-quantitative PCR. […] PCR products were separated on 1.5% (w/v) agarose gels and quantified after staining with ethidium bromide in comparison with internal control gene expression of β-actin.

The subject of test [3] is rat fibrochondrocyte and articular chondrocyte. The experiment in a line: Phenotype of chondrocytes in monolayer culture (semi-quantitative PCR, collagen II immunohistochemical staining). In kind it is cell-based. Particulars: passages P0-P2, Col2a1/collagen II. As to the method: as §1
The subject of test [4] is dedifferentiated rat chondrocytes in high-density culture. Description: Redifferentiation of dedifferentiated chondrocytes in high-density culture (Col2a1 expression). In kind it is cell-based. As to the method:
5. High density culture of chondrocytes. The chondrocytes were harvested and suspended in DMEM containing 10% FBS. The cells were seeded at 4×10^5 cells/well into a 24-well plate, and experiment was divided into two groups: control group and experimental group (with 3 μg/m. 1 rhMK). When the cells reached confluence, they were cultured for additional 14 days. The culture medium was changed every two days. After the culture, some of the cells were collected for RNA extraction, and some were treated with trypsin and 0.2% type II collagenase at 37° C. for 30 min. The cells were cytospined onto glass slide and stored at −80° C. 6. Immunohistochemical staining. The cytospined glass slides covered with the cultured chondrocytes under various conditions were stored at −80° C. They were fixed in cold acetone for 10 min, treated sequentially in PBS for 5 min, in 3% H2O2 (in ddH2O) for 10 min at room temperature, and finally in ddH2O for 5 min. The slides were covered with 5% BSA (bovine serum albumine) for 20 min at room temperature. The excess serum was removed and the sections were covered with antibody against type II collagen (dilution 1:100) for 30 min at 37° C. […] RNA extraction and semi-quantitative PCR. […] PCR products were separated on 1.5% (w/v) agarose gels and quantified after staining with ethidium bromide in comparison with internal control gene expression of β-actin.

B1: rhMK: recombinant human midkine mature protein (SEQ ID NO.1) expressed in E. coli and purified by ion-exchange chromatography (protein, listed as Homo sapiens)
chain: MKKKDKVKKGGPGSECAEWAWGPCTPSSKDCGVGFREGTCGAQTQRIRCRVPCNWKKEFGADCKYKFENWGACDGGTGTKVRQGTLKKARYNAQCQETIRVTKPCTPKTKAKAKAKKGKGKD
For B1, the histological scores result in test [1] (ACLT/rhMK groups (58.3 and 525 μg/kg intra-articular) versus ACLT/saline group, P<0.05 Kruskal-wallis Test) is given as “statistically lower than that of the ACLT/saline group”. Further, in test [1] (ACLT/rhMK groups versus ACLT/saline group, 18 weeks after ACLT surgery), the “regenerated cartilage layer thickness (histology)” value is “significantly thicker than that of ACLT/saline group”. Further, in test [2] (auricular chondrocyte after one passage), the “effect on Col2a1 expression (semiquantitative PCR)” value was “inhibited the decreasing of the Col2a1”. For the same molecule, in test [2] (auricular chondrocytes, passage one, rhMK group, not detected without rhMK), the “chondrocytes stained collagen II positive” value is reported as “about 50%”. In addition, the “effect on the phenotype of fibrochondrocyte and articular chondrocyte” value in test [3] is listed as “no significant effect”. The “effect on Col2a1 re-expression” value in test [4] (P3 fibrochondrocytes cultured in high-density) is on record as “no effect”. Also, the “Col2a1 expression level in high-density cultures with rhMK” value in test [4] (P6 articular chondrocyte and P3 auricular chondrocyte) was “significantly inhibited”.
